Experimental data taken from patent publication EP4740967A1 (Shanghai Escugen Biotechnology Co., Ltd., dated 2026).

Assays:
Assay in all cases: cell-based or functional assay
human Claudin18.2 [1] = biological target: T1, human Claudin18.2 (human, UniProt P56856 1-261)
T1 sequence (looked up): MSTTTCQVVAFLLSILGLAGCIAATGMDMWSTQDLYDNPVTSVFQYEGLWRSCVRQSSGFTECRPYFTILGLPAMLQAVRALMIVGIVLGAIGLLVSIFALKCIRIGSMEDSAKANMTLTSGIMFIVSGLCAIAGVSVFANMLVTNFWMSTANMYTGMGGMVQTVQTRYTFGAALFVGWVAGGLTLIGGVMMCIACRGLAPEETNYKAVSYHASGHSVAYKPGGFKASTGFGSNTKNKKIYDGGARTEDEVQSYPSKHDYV

human Claudin18.2 [2] = biological target: T1, human Claudin18.2; remark: listed apart in the source
human Claudin18.2 [3] = biological target: T1, human Claudin18.2; remark: listed apart in the source
human Claudin18.2 [4] = biological target: T1, human Claudin18.2; remark: listed apart in the source

B1: 9D1-LD-38 (antibody, human IgG1, kappa, V domains shown)
VH: QIQLVQSGAEVKKPGASVKISCKASGYSFTDYHMNWVRQAPGKGLEWIGNIDPYYGSPTYNHKFKGRVTLTVDTSTSTAYMELSSLRSEDTAVYYCANYGRGNSFPYWGQGTLVTVSS
VL: DIVMTQSPSSLAVSLGERATINCKSSQSLLNSGNQRNYLTWYQQKPGQPPKLLIYWASTRESGVPDRFSGSGSGTDFTLTISSLQAEDVAVYYCQNDYSFPFTFGQGTKLEIKR
modifications: LD-38 linker-drug (Exatecan) on reduced interchain cysteine; main conjugation form one LD-38 molecule per light chain; LD-38 linker-drug (Exatecan) on reduced interchain cysteines; main conjugation form three LD-38 molecules per heavy chain (DAR 8 nominal, 7.8 measured)
IC50 of inhibition of proliferation of MC38-hClaudin18.2 cells (AlamarBlue cell viability, 72 h) (human Claudin18.2 [1]): 0.632 nM | IC50 of in vitro cell killing on MC38-hClaudin18.2 cells (AlamarBlue cell viability) (human Claudin18.2 [2]): 1.36 nM | IC50 of in vitro cell killing on NUGC4-hClaudin18.2 cells (CCK-8 cell viability, 120 h) (human Claudin18.2 [3]): 0.728 nM | IC50 of in vitro cell killing on HEK293-hClaudin18.2 cells (AlamarBlue cell viability, 72 h) (human Claudin18.2 [4]): 0.09 nM
